Biological target: NaV1.5-V5 (cardiac voltage-gated sodium channel alpha subunit, SCN5A)
Test: cell-based or functional assay

rat β1-V5-6×HIS (sodium channel beta-1 subunit, SCN1B) (from UniProt Q00954 19-218)
GV ΔV1/2 (mV), whole-cell patch clamp, BeHAPe cells, NaV1.5 + β1: 6.7 mV | GV ΔV1/2 (mV), whole-cell patch clamp, eHAP cells, NaV1.5 + β1: 0.2 mV | SSI ΔV1/2 (mV), whole-cell patch clamp, BeHAPe cells, NaV1.5 + β1: 8.8 mV | SSI ΔV1/2 (mV), whole-cell patch clamp, eHAP cells, NaV1.5 + β1: 3.2 mV | shift of GV V1/2 (fit to mean values, FIG. 5A), BeHAPe cells: 7.5 mV | shift of SSI V1/2 (fit to mean values, FIG. 5A), BeHAPe cells: 7.5 mV | Δτ inactivation at V1/2 (ms), whole-cell patch clamp, BeHAPe cells, NaV1.5 + β1: -1.7 ms | Δτ inactivation at V1/2 (ms), whole-cell patch clamp, eHAP cells, NaV1.5 + β1: -0.3 ms

rat β2-HA (sodium channel beta-2 subunit, SCN2B) (from UniProt P54900 30-215)
GV ΔV1/2 (mV), whole-cell patch clamp, BeHAPe cells, NaV1.5 + β2: -2.5 mV | SSI ΔV1/2 (mV), whole-cell patch clamp, BeHAPe cells, NaV1.5 + β2: -9.9 mV | shift of SSI V1/2 (fit to mean values, FIG. 5B), BeHAPe cells: -5.9 mV | Δτ inactivation at V1/2 (ms), whole-cell patch clamp, BeHAPe cells, NaV1.5 + β2: -0.5 ms

β1 & β2 (rat β1-V5-6×HIS and rat β2-HA simultaneously co-expressed) (from UniProt Q00954 19-157; P54900 30-157)
GV ΔV1/2 (mV), whole-cell patch clamp, BeHAPe cells, NaV1.5 + β1 & β2: 7.9 mV | SSI ΔV1/2 (mV), whole-cell patch clamp, BeHAPe cells, NaV1.5 + β1 & β2: 9.1 mV | shift of GV V1/2 (fit to mean values, FIG. 5E), BeHAPe cells: 9.3 mV | shift of SSI V1/2 (fit to mean values, FIG. 5E), BeHAPe cells: 13.4 mV | Δτ inactivation at V1/2 (ms), whole-cell patch clamp, BeHAPe cells, NaV1.5 + β1 & β2: 0 ms

B1: Myelin protein zero (MPZ) (protein, UniProt P25189 1-248, looked up, species assumed)
chain: MAPGAPSSSPSPILAVLLFSSLVLSPAQAIVVYTDREVHGAVGSRVTLHCSFWSSEWVSDDISFTWRYQPEGGRDAISIFHYAKGQPYIDEVGTFKERIQWVGDPRWKDGSIVIHNLDYSDNGTFTCDVKNPPDIVGKTSQVTLYVFEKVPTRYGVVLGAVIGGVLGVVLLLLLLFYVVRYCWLRRQAALQRRLSAMEKGKLHKPGKDASKRGRQTPVLYAMLDHSRSTKAVSEKKAKGLGESRKDKK
modifications: full-length
GV ΔV1/2 (mV), whole-cell patch clamp, BeHAPe cells, NaV1.5 + MPZ: 8.7 mV | SSI ΔV1/2 (mV), whole-cell patch clamp, BeHAPe cells, NaV1.5 + MPZ: 6.3 mV | shift of GV V1/2 (fit to mean values, FIG. 5F), BeHAPe cells: 7.4 mV | shift of SSI V1/2 (fit to mean values, FIG. 5F), BeHAPe cells: 6.9 mV | Δτ inactivation at V1/2 (ms), whole-cell patch clamp, BeHAPe cells, NaV1.5 + MPZ: 0.2 ms

B2: human β3 (sodium channel beta-3 subunit, SCN3B) (protein, UniProt Q9NY72 23-215, looked up)
chain: FPVCVEVPSETEAVQGNPMKLRCISCMKREEVEATTVVEWFYRPEGGKDFLIYEYRNGHQEVESPFQGRLQWNGSKDLQDVSITVLNVTLNDSGLYTCNVSREFEFEAHRPFVKTTRLIPLRVTEEAGEDFTSVVSEIMMYILLVFLTLWLLIEMIYCYRKVSKAEEAAQENASDYLAIPSENKENSAVPVEE
GV ΔV1/2 (mV), whole-cell patch clamp, BeHAPe cells, NaV1.5 + β3: 8.8 mV | SSI ΔV1/2 (mV), whole-cell patch clamp, BeHAPe cells, NaV1.5 + β3: 9.1 mV | shift of GV V1/2 (fit to mean values, FIG. 5C), BeHAPe cells: 7.4 mV | shift of SSI V1/2 (fit to mean values, FIG. 5C), BeHAPe cells: 9.4 mV | Δτ inactivation at V1/2 (ms), whole-cell patch clamp, BeHAPe cells, NaV1.5 + β3: 0.4 ms

B3: human β4 (sodium channel beta-4 subunit, SCN4B) (protein, UniProt Q8IWT1 31-228, looked up)
chain: LEVSVGKATDIYAVNGTEILLPCTFSSCFGFEDLHFRWTYNSSDAFKILIEGTVKNEKSDPKVTLKDDDRITLVGSTKEKMNNISIVLRDLEFSDTGKYTCHVKNPKENNLQHHATIFLQVVDRLEEVDNTVTLIILAVVGGVIGLLILILLIKKLIIFILKKTREKKKECLVSSSGNDNTENGLPGSKAEEKPPSKV
GV ΔV1/2 (mV), whole-cell patch clamp, BeHAPe cells, NaV1.5 + β4: 5.2 mV | SSI ΔV1/2 (mV), whole-cell patch clamp, BeHAPe cells, NaV1.5 + β4: 2.4 mV | shift of GV V1/2 (fit to mean values, FIG. 5D), BeHAPe cells: 6.1 mV | Δτ inactivation at V1/2 (ms), whole-cell patch clamp, BeHAPe cells, NaV1.5 + β4: 0.5 ms

From patent US20250020634A1
